Measured values as given in article PMC2606918 (Molecular pharmacology, 2008).

Tests used:
[1] = molecular target: T1, GST-D2-IC3 (third intracellular loop of the rat dopamine D2L receptor) (Rattus norvegicus, UniProt P61169); experiment: GST pull-down binding of purified arrestin to GST-D2-IC3
T1 sequence (P61169 211-371): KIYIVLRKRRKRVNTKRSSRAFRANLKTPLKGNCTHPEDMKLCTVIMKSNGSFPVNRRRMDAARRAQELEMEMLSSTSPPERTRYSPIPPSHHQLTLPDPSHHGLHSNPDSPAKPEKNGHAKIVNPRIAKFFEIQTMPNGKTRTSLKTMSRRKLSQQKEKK

[2] = molecular target: T2, GST-D3-IC3 (third intracellular loop of the rat dopamine D3 receptor) (Rattus norvegicus, UniProt P19020); experiment: GST pull-down binding of purified arrestin to GST-D3-IC3
T2 sequence (P19020 210-372): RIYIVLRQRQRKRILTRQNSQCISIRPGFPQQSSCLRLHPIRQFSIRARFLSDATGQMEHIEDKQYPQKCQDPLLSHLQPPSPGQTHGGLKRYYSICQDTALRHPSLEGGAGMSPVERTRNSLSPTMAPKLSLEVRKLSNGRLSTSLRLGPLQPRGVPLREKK

wild type D2 receptor = wild type D2 receptor (Rattus norvegicus, UniProt P61169); settings: PTX 50 ng/ml overnight prior to agonist treatment
D2-A4 mutant receptor = D2-A4 mutant receptor (Rattus norvegicus, UniProt P61169, I212A/I214A/V215A/Y213A); settings: PTX 50 ng/ml overnight prior to agonist treatment
D2-IC3ΔNT5 = molecular target: T3, D2-IC3ΔNT5 (Rattus norvegicus, UniProt P61169); experiment: GST pull-down binding of arrestin3 to D2-IC3ΔNT5; settings: versus D2-IC3; 400 ng fusion protein, 100 ng arrestin3
T3 sequence (P61169 216-371 limits assumed): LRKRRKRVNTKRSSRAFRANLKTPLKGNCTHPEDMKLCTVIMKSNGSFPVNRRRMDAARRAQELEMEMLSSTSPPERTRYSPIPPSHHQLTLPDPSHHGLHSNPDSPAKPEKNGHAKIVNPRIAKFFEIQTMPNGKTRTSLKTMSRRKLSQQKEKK

D2-IC3ΔNT10 = molecular target: T4, D2-IC3ΔNT10 (Rattus norvegicus, UniProt P61169); experiment: GST pull-down binding of arrestin3 to D2-IC3ΔNT10; settings: versus D2-IC3; 400 ng fusion protein, 100 ng arrestin3
T4 sequence (P61169 221-371 limits assumed): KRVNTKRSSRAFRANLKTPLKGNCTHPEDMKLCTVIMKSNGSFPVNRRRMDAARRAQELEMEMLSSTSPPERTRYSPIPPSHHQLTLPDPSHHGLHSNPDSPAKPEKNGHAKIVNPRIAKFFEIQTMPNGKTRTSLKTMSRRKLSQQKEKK

[3] = molecular target: purified bovine arrestin3 (bovine, UniProt P32120 1-420); experiment: pull-down
[4] = amount of arrestin3 bound to 300 ng of GST-IC3
[5] = rate of association, data not shown
[6] = saturation analysis, 300 ng GST-IC3, 30 min room temperature

Chain of purified bovine arrestin3 (P32120 whole entry): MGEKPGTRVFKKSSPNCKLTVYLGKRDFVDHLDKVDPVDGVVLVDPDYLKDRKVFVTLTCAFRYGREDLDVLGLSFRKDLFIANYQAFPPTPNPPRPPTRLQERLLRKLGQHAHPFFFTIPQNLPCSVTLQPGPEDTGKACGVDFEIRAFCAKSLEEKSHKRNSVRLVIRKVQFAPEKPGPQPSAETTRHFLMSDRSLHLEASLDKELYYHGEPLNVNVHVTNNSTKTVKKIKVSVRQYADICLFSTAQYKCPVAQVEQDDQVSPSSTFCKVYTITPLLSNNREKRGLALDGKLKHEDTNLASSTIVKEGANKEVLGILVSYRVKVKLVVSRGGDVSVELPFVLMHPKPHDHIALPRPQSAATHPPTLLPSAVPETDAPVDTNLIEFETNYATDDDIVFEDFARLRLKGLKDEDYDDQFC
Chain of wild type D2 receptor (P61169 whole entry): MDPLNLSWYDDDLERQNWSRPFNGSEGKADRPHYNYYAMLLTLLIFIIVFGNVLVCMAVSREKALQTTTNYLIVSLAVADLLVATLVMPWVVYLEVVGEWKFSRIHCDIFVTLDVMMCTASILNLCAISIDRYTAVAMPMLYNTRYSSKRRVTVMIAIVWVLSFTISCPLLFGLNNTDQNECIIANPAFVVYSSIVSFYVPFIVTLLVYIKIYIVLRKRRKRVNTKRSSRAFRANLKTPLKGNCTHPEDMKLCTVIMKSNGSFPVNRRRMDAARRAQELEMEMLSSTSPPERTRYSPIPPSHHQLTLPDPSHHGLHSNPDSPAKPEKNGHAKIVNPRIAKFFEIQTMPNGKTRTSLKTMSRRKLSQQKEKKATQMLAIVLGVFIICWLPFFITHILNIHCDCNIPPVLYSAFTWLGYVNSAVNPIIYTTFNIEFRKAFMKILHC
Chain of D2-A4 mutant receptor (P61169 whole entry I212A/Y213A/I214A/V215A, the tested form may be a part): as the sequence (P61169 whole entry) above, with I212A, Y213A, I214A, V215A counted along it

## Arrestin2: purified bovine arrestin2, non-visual arrestin also termed β-arrestin 1
[1]; GST pull-down, in words
  binding of arrestin2: bound weakly
[2]; GST pull-down, in words
  binding of arrestin2: bound weakly

## pertussis toxin [PTX]
Wild type D2 receptor
  effect of PTX on activation of ERKs: greatly decreased
D2-A4 mutant receptor
  effect of PTX on activation of ERKs: greatly decreased

## Arrestin3: purified bovine arrestin3, non-visual arrestin also termed β-arrestin 2
[1]; [4]
  Bmax: 10.1 ± 0.6 ng
[1]; [5]
  half-time for binding: approximately 2 min
  time at which binding approached equilibrium: ≤ 15 min
[1]; [6]
  Kd: 72 ± 14 nM
[1]; summary for D2-like receptor IC3 (D2-IC3 and D3-IC3), GST pull-down
  Kd: 70 to 80 nM
[2]; [4]
  Bmax: 10.2 ± 0.6 ng
[2]; [6]
  Kd: 79 ± 14 nM
D2-IC3ΔNT5
  decrease of arrestin binding: about 60%
D2-IC3ΔNT10
  decrease of arrestin binding: about 60%

B1: GST-D2-IC3 (GST fusion of the third intracellular loop of the rat dopamine D2L receptor, amino acids 211-371) (domain or fragment, UniProt P61169 211-371, looked up)
chain: KIYIVLRKRRKRVNTKRSSRAFRANLKTPLKGNCTHPEDMKLCTVIMKSNGSFPVNRRRMDAARRAQELEMEMLSSTSPPERTRYSPIPPSHHQLTLPDPSHHGLHSNPDSPAKPEKNGHAKIVNPRIAKFFEIQTMPNGKTRTSLKTMSRRKLSQQKEKK
[3]
  Kd: 72 nM

B2: GST-D3-IC3 (GST fusion of the third intracellular loop of the rat dopamine D3 receptor, amino acids 210-372) (domain or fragment, UniProt P19020 210-372, looked up)
chain: RIYIVLRQRQRKRILTRQNSQCISIRPGFPQQSSCLRLHPIRQFSIRARFLSDATGQMEHIEDKQYPQKCQDPLLSHLQPPSPGQTHGGLKRYYSICQDTALRHPSLEGGAGMSPVERTRNSLSPTMAPKLSLEVRKLSNGRLSTSLRLGPLQPRGVPLREKK
[3]
  Kd: 79 nM
